PMC11172107

Biological target: T1, ArgR-His6 (Vibrio fluvialis 85003) (UniProt A0AAX2LJS0)
T1 sequence: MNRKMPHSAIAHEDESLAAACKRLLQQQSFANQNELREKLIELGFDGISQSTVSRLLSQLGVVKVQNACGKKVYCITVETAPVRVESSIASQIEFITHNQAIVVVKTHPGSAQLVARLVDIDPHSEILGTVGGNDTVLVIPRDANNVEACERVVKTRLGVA
Assay: EMSA
Details: EMSA: 20 mM Tris/HCl pH 7.6, 50 mM KCl, 1 mM EDTA, 5% glycerol, 200 ng BSA, 500 ng dI-dC, 15 ng probe, 30 C 20 min; footprinting: 5.40 uM ArgR-His6, 40 uL …

**Q.** For “CCGCAGGCTCTTTAGAATTTCTTTAACGATGAAGTGAAATTCACTTTATCACCATGAATAACAATAAAAGTTTTCACCATATTTATTACAAGTCCTAAGCTTTATTCCACGAAATACGTTGCCATATTGAATAGTATTGCAATAAACGTTTTCTAAATGAGTGAATTGAGGTGTGGG (double strand) [arcD2 probe]”, which binding is on record?
**A.** The binding was “binds”.
